Where “and” joins values, the source holds several entries; their conditions need not be identical. Equal values may be shown once. Read-outs that look alike come from different tables or passages of the source.
How the values were obtained:
GRPR = tested on: GRPR; parameters: method as in PMID 22080443, PMID 9437737; conditions: literature value for reference peptide; ref [32],[39]; cited from earlier work
[1] = Description: The octanol–water partition coefficients (Po/w) of the radioconjugates (20 µL, typically 1 to 5 MBq) were determined by the “shake-flask” method, as previously described.
in vitro = conditions: human, human serum
Description: The radiochemical stability of the radioconjugates was evaluated in vitro by the incubation of the four radioconjugates at 37 °C in PBS, in cell culture media (CCM) and human serum (HS) for 24 h, followed by HPLC analysis.

PC3 cells = experiment: Cellular uptake, internalization and blocking assays in PC3 cells; type: cell-based, human; conditions: 37 °C
Description: The time-dependent accumulation of ^111In-conjugates in PC3 cells was evaluated according to a previously described procedure. Briefly, PC3 cells were incubated at 37 °C for 5 min to 4 h with about 7.4 kBq of the tested radioconjugates. To assess the surface binding, the cells were treated twice with glycine buffer (50 mM glycine-HCl/100 mM NaCl, pH 2.8). Then, the cells were lysed with NaOH 1 M (internalized radioconjugate). The activity in both cell surface-bound and internalized fractions was measured in a γ-counter and reported as a percentage of the total applied radioactivity. The total cellular uptake was calculated by the addition of the activities recovered from the surface binding and internalized fractions. Assays for each time point were performed in quadruplicate, and data were presented as average ± SD of typically three independent experiments.
To assess the specific GRPR-mediated cellular uptake and internalization of radioconjugates (receptor blocking studies), a similar study was performed in which cells were incubated with the [^111In]In-DOTA-Tz-TCO-PEG4-AR for 1, 2 and 4 h, with or without the GRPR agonist Tyr4-Bombesin (0.25 µg/0.5 mL/well).

[2] = Biodistribution of 111In-radioconjugates/radiocomplex in PC3 xenografts-bearing mice; type: in vivo, Balb/c-male nude mice; conditions: male, Balb/c nude, mouse, iv, total radioactivity; for tissue uptake at […]: 15 min p.i.
Description: (§1) Blood samples were taken by cardiac puncture at sacrifice.

[3] = tested on: PC3 xenografts-bearing mice; experiment: as above; type: in vivo, Balb/c-male nude mice
Description: as §1

[4] = 15 min p.i., listed as [111In]In-DOTA-Tz-TCO-PEG4-AR
[5] = 1 h p.i., blocking (excess of agonist)

**Q.** Which IC50 (GRPR) does the source give for “D-Phe-Gln-Trp-Ala-Val-Gly-His-Sta-Leu-NH2 [AR]” here?
**A.** 2.9 ± 0.6 nM

**Q.** With CC(C)C[C@H](NC(=O)C[C@H](O)[C@H](CC(C)C)NC(=O)[C@H](Cc1c[nH]cn1)NC(=O)CNC(=O)[C@@H](NC(=O)[C@H](C)NC(=O)[C@H](Cc1c[nH]c2ccccc12)NC(=O)[C@H](CCC(N)=O)NC(=O)[C@@H](Cc1ccccc1)NC(=O)CCOCCOCCOCCOCCNC(=O)OC1CCCc2c(cnnc2-c2ccc(CNC(=O)CCC(C(=O)O)N3CCN(CC(=O)O)CCN(CC(=O)O)CCN(CC(=O)O)CC3)cc2)CC1)C(C)C)C(N)=O (stereo partly drawn) [[^111In]In-DOTAGA-Tz-TCO-PEG4-AR, metal not drawn] as the molecule, how does the logP [1] read?
**A.** -1.18 ± 0.05

**Q.** And the remaining at 24 h (in vitro)?
**A.** ~70%

**Q.** Which results are given for CC(C)C[C@H](NC(=O)C[C@H](O)[C@H](CC(C)C)NC(=O)[C@H](Cc1c[nH]cn1)NC(=O)CNC(=O)[C@@H](NC(=O)[C@H](C)NC(=O)[C@H](Cc1c[nH]c2ccccc12)NC(=O)[C@H](CCC(N)=O)NC(=O)[C@@H](Cc1ccccc1)NC(=O)CCOCCOCCOCCOCCNC(=O)OC1CCCc2c(cnnc2-c2ccc(CNC(=O)CN3CCN(CC(=O)O)CCN(CC(=O)O)CCN(CC(=O)O)CC3)cc2)CC1)C(C)C)C(N)=O (stereo partly drawn) [[^111In]In-DOTA-Tz-TCO-PEG4-AR, metal not drawn]?
**A.** Distribution of cell-associated activity (surface-bound vs internalized) (PC3 cells): mainly bound to the cell membrane; Cellular uptake (PC3 cells; start of the assay): 17 % of the total activity applied per million cells; logP [1]: -1.2 ± 0.04; tissue uptake at 1 h ([2]; heart, 1 h p.i., read-out: Heart uptake): 0.815 %ID/g; dose excreted at 1 h ([2]; in vivo, 1 h p.i., read-out: Excretion): 74.8%; dose excreted at 24 h ([2]; in vivo, 24 h post-injection, mainly through the renal system, read-out: Injected activity excreted): 97%; tissue uptake at 1 h ([2]; intestine, 1 h p.i., read-out: Intestine uptake): 1.85 %ID/g; tissue uptake at […] ([2]; kidneys, read-out: Kidneys uptake): 15.4 ± 6.2 %ID/g; tissue uptake at 1 h ([2]; kidneys, 1 h p.i., read-out: Kidneys uptake): 5.33 %ID/g; tissue uptake at […] ([2]; liver, read-out: Liver uptake): 6 %ID/g; tissue uptake at 1 h ([2]; lungs, 1 h p.i., read-out: Lungs uptake): 1.61 %ID/g; tissue uptake at 1 h ([2]; muscle, 1 h p.i., read-out: Muscle uptake): 0.875 %ID/g; tissue uptake at 2 h ([2]; pancreas, 2 h p.i.): 11 %ID/g; tissue uptake at 1 h ([2]; pancreas, with excess of agonist (receptor blocking), 1 h p.i., blocking (excess of agonist), read-out: Pancreas uptake): 1.6 ± 0.6 %ID/g; tissue uptake at 1 h ([2]; stomach, 1 h p.i., read-out: Stomach uptake): 2.62 %ID/g; tissue uptake at 1 h ([2]; tumor (PC3 xenograft), 1 h p.i., read-out: Tumor uptake): 9.57 %ID/g; tissue uptake at 1 h ([2]; tumor (PC3 xenograft), with excess of agonist (receptor blocking), 1 h p.i., blocking (excess of agonist), read-out: Tumor uptake): 4.4 ± 2 %ID/g; Blood uptake ([3]; 15 min p.i.): 6. 7 % I.D./g; Bone uptake ([3]; 15 min p.i.): 7. 2 % I.D./g; Excretion ([3]; 15 min p.i.): 17. % I.D.; Heart uptake ([3]; 15 min p.i.): 5. 4 % I.D./g; Intestine uptake ([3]; 15 min p.i.): 3. 6 % I.D./g; Lungs uptake ([3]; 15 min p.i.): 9. 6 % I.D./g; Muscle uptake ([3]; 15 min p.i.): 3. 8 % I.D./g; Pancreas uptake ([3]; 15 min p.i.): 25.2 ± 3 % I.D./g and 25.2 ± 0.2 % I.D./g; Spleen uptake ([3]; 15 min p.i.): 3. 6 % I.D./g; Stomach uptake ([3]; 15 min p.i.): 10. 6 % I.D./g; Tumor uptake ([3]; 15 min p.i.): 8.4 ± 0.5 % I.D./g; Kidneys uptake [3, 4]: 15. 4 % I.D./g; Pancreas uptake [3, 4]: 25. 2 % I.D./g; Tumor uptake [3, 4]: 8. 4 % I.D./g; Blood uptake ([3]; 1 h p.i.): 2. 62 % I.D./g; Bone uptake ([3]; 1 h p.i.): 0. 85 % I.D./g; Liver uptake ([3]; 1 h p.i.): 1. 15 % I.D./g; Pancreas uptake ([3]; 1 h p.i.): 13.9 ± 1.6 % I.D./g; Spleen uptake ([3]; 1 h p.i.): 1. 32 % I.D./g; Tumor uptake ([3]; 1 h p.i.): 9.6 ± 1.7 % I.D./g; Blood uptake [3, 5]: 3. 08 % I.D./g; Bone uptake [3, 5]: 1. 395 % I.D./g; Excretion [3, 5]: 51. % I.D.; Heart uptake [3, 5]: 1. 11 % I.D./g; Intestine uptake [3, 5]: 0. 995 % I.D./g; Kidneys uptake [3, 5]: 8. 435 % I.D./g; Liver uptake [3, 5]: 1. 63 % I.D./g; Lungs uptake [3, 5]: 2. 135 % I.D./g; Muscle uptake [3, 5]: 1. 755 % I.D./g; Pancreas uptake [3, 5]: 1. 685 % I.D./g; Spleen uptake [3, 5]: 0. 83 % I.D./g; Stomach uptake [3, 5]: 1. 16 % I.D./g; Tumor uptake [3, 5]: 4. 445 % I.D./g; Pancreas uptake ([3]; 1 h p.i., listed as [111In]In-DOTA-Tz-TCO-PEG4-AR): 13. 875 % I.D./g; Blood uptake ([3]; 2 h p.i.): 1. 7 % I.D./g; Bone uptake ([3]; 2 h p.i.): 0. 7 % I.D./g; Excretion ([3]; 2 h p.i.): 84. % I.D.; Heart uptake ([3]; 2 h p.i.): 0. 5 % I.D./g; Intestine uptake ([3]; 2 h p.i.): 1. 1 % I.D./g; Kidneys uptake ([3]; 2 h p.i.): 5. 4 % I.D./g; Liver uptake ([3]; 2 h p.i.): 1. 7 % I.D./g; Lungs uptake ([3]; 2 h p.i.): 1. 1 % I.D./g; Muscle uptake ([3]; 2 h p.i.): 0. 6 % I.D./g; Pancreas uptake ([3]; 2 h p.i.): 11 ± 2.5 % I.D./g; Spleen uptake ([3]; 2 h p.i.): 0. 6 % I.D./g; Stomach uptake ([3]; 2 h p.i.): 2. 1 % I.D./g; Tumor uptake ([3]; 2 h p.i.): 13.1 ± 1.7 % I.D./g; Tumor uptake ([3]; 2 h p.i., listed as [111In]In-DOTA-Tz-TCO-PEG4-AR): 13. 1 % I.D./g; Blood uptake ([3]; 24 h p.i.): 0. 16 % I.D./g; Bone uptake ([3]; 24 h p.i.): 0. 038 % I.D./g; Excretion ([3]; 24 h p.i.): 96. % I.D.; Heart uptake ([3]; 24 h p.i.): 0. 065 % I.D./g; Intestine uptake ([3]; 24 h p.i.): 0. 12 % I.D./g; Kidneys uptake ([3]; 24 h p.i.): 1. 17 % I.D./g; Liver uptake ([3]; 24 h p.i.): 0. 21 % I.D./g; Lungs uptake ([3]; 24 h p.i.): 0. 12 % I.D./g; Muscle uptake ([3]; 24 h p.i.): 0. 034 % I.D./g; Pancreas uptake ([3]; 24 h p.i.): 0. 14 % I.D./g; Spleen uptake ([3]; 24 h p.i.): 0. 065 % I.D./g; Stomach uptake ([3]; 24 h p.i.): 0. 09 % I.D./g; Tumor uptake ([3]; 24 h p.i.): 0. 76 % I.D./g
